In US10428140B2, “Anti-EphA4 antibody” (EISAI R&D MANAGEMENT CO., LTD., priority 2015, dated 2019):
Changes are numbered by the printed parent chain.

T1: human EphA10 (Homo sapiens, UniProt Q5JZY3)
T1 construct: a protein of the extracellular region of each human Eph receptor fused with the SEAP protein and the His tag; made in house; host or cells: Expi293F cells (culture supernatant)
T1 sequence (Q5JZY3 34-565 limits assumed): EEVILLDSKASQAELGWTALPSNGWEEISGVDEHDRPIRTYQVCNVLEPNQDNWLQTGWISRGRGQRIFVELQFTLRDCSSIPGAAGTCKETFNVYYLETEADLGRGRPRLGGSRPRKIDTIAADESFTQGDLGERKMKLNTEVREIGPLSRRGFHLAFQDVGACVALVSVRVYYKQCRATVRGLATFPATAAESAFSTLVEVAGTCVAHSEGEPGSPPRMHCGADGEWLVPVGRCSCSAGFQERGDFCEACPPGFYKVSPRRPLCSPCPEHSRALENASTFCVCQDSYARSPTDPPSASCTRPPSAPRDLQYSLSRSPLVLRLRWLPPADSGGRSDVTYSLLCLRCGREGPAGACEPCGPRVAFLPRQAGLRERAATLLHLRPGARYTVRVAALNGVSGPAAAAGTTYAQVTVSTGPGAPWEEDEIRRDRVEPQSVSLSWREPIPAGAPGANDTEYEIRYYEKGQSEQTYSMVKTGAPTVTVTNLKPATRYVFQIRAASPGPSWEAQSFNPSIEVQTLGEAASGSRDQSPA

T2: human EphA6 (Homo sapiens, UniProt Q9UF33)
T2 construct: a protein of the extracellular region of each human Eph receptor fused with the SEAP protein and the His tag; made in house; host or cells: Expi293F cells (culture supernatant)
T2 sequence (Q9UF33 23-550 limits assumed): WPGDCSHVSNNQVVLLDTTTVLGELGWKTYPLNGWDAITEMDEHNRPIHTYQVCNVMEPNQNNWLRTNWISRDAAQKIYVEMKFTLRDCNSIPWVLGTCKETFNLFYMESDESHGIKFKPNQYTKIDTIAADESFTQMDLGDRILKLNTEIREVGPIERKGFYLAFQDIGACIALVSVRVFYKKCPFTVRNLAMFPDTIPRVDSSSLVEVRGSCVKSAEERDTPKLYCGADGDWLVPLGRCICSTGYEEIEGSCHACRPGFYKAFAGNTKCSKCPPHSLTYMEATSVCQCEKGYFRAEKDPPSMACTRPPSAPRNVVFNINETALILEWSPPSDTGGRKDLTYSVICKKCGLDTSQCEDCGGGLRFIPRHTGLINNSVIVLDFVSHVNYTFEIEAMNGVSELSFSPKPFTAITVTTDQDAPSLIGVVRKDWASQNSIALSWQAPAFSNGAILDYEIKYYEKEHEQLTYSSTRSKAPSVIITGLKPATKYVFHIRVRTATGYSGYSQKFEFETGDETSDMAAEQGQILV

T3: human EphB6 (Homo sapiens, UniProt O15197)
T3 construct: a protein of the extracellular region of each human Eph receptor fused with the SEAP protein and the His tag; made in house; host or cells: Expi293F cells
T3 sequence (O15197 32-594 limits assumed): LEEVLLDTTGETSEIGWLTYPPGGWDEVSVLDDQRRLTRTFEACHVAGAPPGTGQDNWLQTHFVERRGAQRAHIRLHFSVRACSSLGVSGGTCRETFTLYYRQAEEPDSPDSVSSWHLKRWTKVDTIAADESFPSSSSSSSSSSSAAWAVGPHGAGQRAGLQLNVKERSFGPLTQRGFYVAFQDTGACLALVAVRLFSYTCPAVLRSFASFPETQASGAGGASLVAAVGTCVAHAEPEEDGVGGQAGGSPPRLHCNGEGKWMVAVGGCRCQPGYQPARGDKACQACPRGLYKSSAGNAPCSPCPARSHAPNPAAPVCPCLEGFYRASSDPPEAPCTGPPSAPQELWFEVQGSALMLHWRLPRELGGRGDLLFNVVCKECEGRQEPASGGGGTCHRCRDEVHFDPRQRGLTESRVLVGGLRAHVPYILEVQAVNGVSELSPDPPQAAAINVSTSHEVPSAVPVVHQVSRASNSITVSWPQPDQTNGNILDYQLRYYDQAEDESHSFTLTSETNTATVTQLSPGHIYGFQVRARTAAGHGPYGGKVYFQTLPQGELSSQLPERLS

B1: 69 (antibody, V domains shown)
VH: QIQLVQSGSELKKPGASVKVSCKASGYTFTDYSMHWVRQAPGQGLKWMGWINTETGEPTYADDFKGRFVFSLDTSVSTAYLQISSLKAEDTAVYYCARIPLYYYGSRYWYFDVWGQGTTVTVSS
VL: DIQMTQSPSSLSASVGDRVTITCRASENIYRNLAWYQQKPGKAPKLLVYAATNLADGVPSRFSGSGSGTDYTLTISSLQPEDFATYYCQHFWGTPWTFGQGTKVEIK
modifications: synthetic humanized antibody heavy chain variable region sequence; synthetic humanized antibody light chain variable region sequence
B2: 86 (antibody, V domains shown)
VL: B1 VL with V48L, P80S
VH: B1 VH
modifications: constant regions without entry; synthetic humanized antibody light chain variable region sequence; synthetic humanized antibody heavy chain variable region sequence
B3: 87 (antibody, V domains shown)
VL: B1 VL with K45Q, V48L
VH: B1 VH with I2V, K46E, D62Q, D63G, K65T
modifications: constant regions without entry; synthetic humanized antibody light chain variable region sequence; synthetic humanized antibody heavy chain variable region sequence
B4: 85 (antibody, V domains shown)
VL: B1 VL with V48L, P80S
VH: B1 VH with I2V
modifications: constant regions without entry; synthetic humanized antibody light chain variable region sequence; synthetic humanized antibody heavy chain variable region sequence
B5: 82 (antibody, V domains shown)
VL: B1 VL with V48L, P80S
VH: B1 VH with I2V, D62Q, D63G, K65T
modifications: constant regions without entry; synthetic humanized antibody light chain variable region sequence; synthetic humanized antibody heavy chain variable region sequence
B6: 88 (antibody, V domains shown)
VL: B1 VL with K45Q, V48L
VH: B1 VH with I2V, D62Q, D63G, K65T
modifications: constant regions without entry; synthetic humanized antibody light chain variable region sequence; synthetic humanized antibody heavy chain variable region sequence
B7: 81 (antibody, V domains shown)
VL: B1 VL with V48L, P80S
VH: B1 VH with I2V, K46E, D62Q, D63G, K65T
modifications: constant regions without entry; synthetic humanized antibody light chain variable region sequence; synthetic humanized antibody heavy chain variable region sequence
B8: 90 (antibody, V domains shown)
VL: B1 VL with K45Q, V48L
VH: B1 VH with I2V, K46E
modifications: constant regions without entry; synthetic humanized antibody light chain variable region sequence; synthetic humanized antibody heavy chain variable region sequence
B9: 83 (antibody, V domains shown)
VL: B1 VL with V48L, P80S
VH: B1 VH with D62Q, D63G, K65T
modifications: constant regions without entry; synthetic humanized antibody light chain variable region sequence; synthetic humanized antibody heavy chain variable region sequence
B10: 89 (antibody, V domains shown)
VL: B1 VL with K45Q, V48L
VH: B1 VH with D62Q, D63G, K65T
modifications: constant regions without entry; synthetic humanized antibody light chain variable region sequence; synthetic humanized antibody heavy chain variable region sequence
B11: 84 (antibody, V domains shown)
VL: B1 VL with V48L, P80S
VH: B1 VH with I2V, K46E
modifications: constant regions without entry; synthetic humanized antibody light chain variable region sequence; synthetic humanized antibody heavy chain variable region sequence

The molecules below were run against T1, human EphA10 (assay: Selectivity ELISA of humanized antibodies for human Eph receptor). Details: coated protein 1 nM.
Assay type: binding
In short: (§1)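 Capture ELISA: anti-6-His coat, 1% BlockAce block, Eph ECD-SEAP-His (1 nM final, Expi293F supernatant) 1 h RT, humanized Ab 1 h RT, HRP anti-IgG 1 h RT, TMB, H2SO4 stop, A450.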

| hEphA10-SEAP-: absorbance at 450 nm, percentage with respect to hEphA4-SEAP-His as 100% [%] | Molecule |
| --- | --- |
| 5.4 | B1 |
| 5.6 | B2 |
| 5.2 | B3 |
| 5.0 | B4 |
| 5.4 | B5 |
| 5.8 | B6 |
| 4.8 | B7 |
| 5.1 | B8 |
| 5.6 | B9 |
| 5.7 | B10 |
| 5.1 | B11 |

What follows are molecules tested against T2, human EphA6 in the same assay as above. Details: coated protein 1 nM.
Assay type: binding
In short: as §1

| hEphA6-SEAP-: absorbance at 450 nm, percentage with respect to hEphA4-SEAP-His as 100% [%] | Molecule |
| --- | --- |
| 9.5 | B1 |
| 8.6 | B2 |
| 6.4 | B3 |
| 6.2 | B4 |
| 8.7 | B5 |
| 7.5 | B6 |
| 8.8 | B7 |
| 7.6 | B8 |
| 7.5 | B9 |
| 8.4 | B10 |
| 6.0 | B11 |

What follows are molecules tested against T3, human EphB6 in the same assay as above. Details: coated protein 1 nM.
Assay type: binding
In short: as §1

| hEphB6-SEAP-: absorbance at 450 nm, percentage with respect to hEphA4-SEAP-His as 100% [%] | Molecule |
| --- | --- |
| 5.6 | B1 |
| 5.7 | B2 |
| 5.3 | B3 |
| 5.2 | B4 |
| 5.5 | B5 |
| 6.1 | B6 |
| 5.0 | B7 |
| 5.2 | B8 |
| 5.8 | B9 |
| 4.8 | B10 |
| 4.9 | B11 |
